A word on the Kd: it is the concentration at which binding is half-saturated.

A value given as a limit tells only on which side of the number the result lay.

Among the targets are Gly2-1-F2; TEA1-E8; Gly1-2-D4; Gly3-2-C1.
What all share (assay): BLI
A general note: Biolayer interferometry detects binding as a change in optical thickness at a sensor tip.

B1: MSLN (other)
chain: EVEKTACPSGKKAREIDESLIFYKKWELEACVDAALLATQMDRVNAIPFTYEQLDVLKHKLDELYPQGYPESVIQHLGYLFLKMSPEDIRKWNVTSLETLKALLEVNKGHEMSPQVATLIDRFVKGRGQLDKDTLDTLTAFYPGYLCSLSPEELSSVPPSSIWAVRPQDLDTCDPRQLDVLYPKARLAFQNMNGSEYFVKIQSFLGGAPTEDLKALSQQNVSMDLATFMKLRTDAVLPLTVAEVQKLLGPHVEGLKAEERHRPVRDWILRQRQDDLDTLGLGLQG
In the case of B1, the Kd was less than 0.001 nM in the test with Gly2-1-F2, 0.166 nM in the test with TEA1-E8, 4.46 nM in the test with Gly1-2-D4 and 4.88 nM with Gly3-2-C1.
